Assay results published in paper PMC4113996, “Prediction and characterization of enzymatic activities guided by sequence similarity and genome neighborhood networks” (eLife, 2014).

Columns and labels:
Test in all cases: purified protein
purified protein [1] = substrate: O=C(O)[C@H]1NCC[C@@H]1O; details: t3HypD (dehydration) reaction, 50 mM Na-phosphate pH 8.0, 1 mM DTT, 25°C
purified protein [2] = substrate: O=C(O)[C@@H]1C[C@@H](O)CN1; assay type: biochemical, Roseibium aggregatum; details: 4HypE reaction (start from t4Hyp as in Figure 1), 50 mM Na-phosphate pH 8.0, 1 mM DTT, 25°C
purified protein [3] = substrate: O=C(O)[C@@H]1C[C@@H](O)CN1; assay type: biochemical, Shewanella loihica; details: 4HypE reaction (start from t4Hyp as in Figure 1), 50 mM Na-phosphate pH 8.0, 1 mM DTT, 25°C
purified protein [4] = substrate: O=C(O)[C@@H]1C[C@@H](O)CN1; assay type: biochemical, Agrobacterium fabrum; details: 4HypE reaction (start from t4Hyp as in Figure 1), 50 mM Na-phosphate pH 8.0, 1 mM DTT, 25°C
purified protein [5] = substrate: O=C(O)[C@H]1NCC[C@@H]1O; assay type: biochemical, Burkholderia ambifaria; details: t3HypD (dehydration) reaction, 50 mM Na-phosphate pH 8.0, 1 mM DTT, 25°C
purified protein [6] = substrate: O=C(O)[C@H]1NCC[C@@H]1O; assay type: biochemical, Agrobacterium fabrum; details: t3HypD (dehydration) reaction, 50 mM Na-phosphate pH 8.0, 1 mM DTT, 25°C
purified protein [7] = substrate: O=C(O)C1=NCCC1; details: 0.16 mM NADPH, 50 mM Tris-HCl pH 7.6, 25°C
purified protein [8] = substrate: O=C(O)[C@@H]1C[C@@H](O)CN1; assay type: biochemical, Streptosporangium roseum; details: 4HypE reaction (start from t4Hyp as in Figure 1), 50 mM Na-phosphate pH 8.0, 1 mM DTT, 25°C
purified protein [9] = substrate: O=C(O)[C@H]1NCC[C@@H]1O; assay type: biochemical, Gillisella ampelina; details: t3HypD (dehydration) reaction, 50 mM Na-phosphate pH 8.0, 1 mM DTT, 25°C
purified protein [10] = substrate: O=C(O)[C@@H]1C[C@@H](O)CN1; assay type: biochemical, Paracoccus denitrificans; details: 4HypE reaction (start from t4Hyp as in Figure 1), 50 mM Na-phosphate pH 8.0, 1 mM DTT, 25°C

B1: SIAM614_28502 (A0NXQ9) (Roseibium aggregatum IAM 12614) (protein)
chain: MRSTKTIHVISCHAEGEVGDVIVGGVAPPPGETLWEQRSFIARDQTLRNFVLNEPRGGVFRHVNLLVPPRHPEADAAFIIMEPEDTPPMSGSNSICVSTVLLDGGIVPMIEPITEMVLEAPGGLVRVKAECRNGKAERIFVQNVTSFADKLSVPLDVEGIGTLTVDTAYGGDSFVVVDAEALGFAIVEDEAKDIARLGVRITNAANEQLGFSHPENPDWNHISFCAFCGPLSQTPTGLTGRSAVAIQPGKVDRSPTGTAVSARMALMAARGQMTIGDTFEAVSIIGSSFTGRIVSQQMAGDRPGIVPEISGRGWITGIHQHMLDPSDPWPGGYKLSDTWGA
Purified protein [1]
  Km: 7.8 ± 1 mM
  kcat: 15 ± 0.9 s⁻¹

B2: SIAM614_28492 (A0NXQ7) (Roseibium aggregatum IAM 12614) (protein)
chain: MRVIDSHTAGEPTRVVLDGGPDLGSGTLAERAARLEAEHLDFCASVVLEPRGHDAIIGALLVPPSDPACAAGVIYFNNLQNLGMCGHATIGLGVTLAHLGRIRPGRHRFETPVGVVEIDLIDANTVSVVNIESYRLAKDVTVEVEGVGPVTGDVAWGGNWFFLVKNSPIALTGANIRPLTDLTLKIRTALEKAGVTGKDGAWIDHIELFGPAEDPAAQSRNFVLCPGGAYDRSPCGTGCSAKLACLAADGALAPGQDYLQESVIGSTYKISYQPGPGGGVIPTITGQAFVTSDATLIFNPADPYRSGIRL
Purified protein [2]
  Km: 3.2 ± 0.5 mM
  kcat: 55 ± 3 s⁻¹

B3: Shew_2363 (A3QFI1) (Shewanella loihica PV-4) (protein)
chain: MLKGTFFCVDAHTCGNPVRLVTSGHPDLKGRTMSEKRQDFLAQYDWIRKALMFEPRGHDMMSGAFLYPPCSDNADAAILFIETSGCLPMCGHGTIGTITAALESGLLTPKMPGQLTIDVPAGQIKVQYQQTGAKVDWVKIFNVPAYLAHKDVVLDIPGLGPLKIDVSYGGNYYAIVDPQANFPGLRHWSAGDILRWSPIVREVAHRELNCVHPDDPTVNGVSHVLWTGDTISEGSNGANAVFYGDKAIDRSPCGTGTSARLAQLYSRGELKVGDEYTHESIIGSQFVGRIEAATKVGAFDAIMPSIKGWARITGHNAITVDDNDPYAFGFQVV
Purified protein [3]
  Km: 12 ± 3 mM
  kcat: 50 ± 6 s⁻¹

B4: Atu0398 (A9CKB4) (Agrobacterium fabrum str. C58) (protein)
chain: MRWKRTLQLLDVHCEGEIGRVVTGGAPKIPGNTVAEQLHWMNTDPQGEALRRFLTLEPRGTPMGSVDLLLPPKHPDAHAAFVILQPDQAHASSGSNSICATTALLESGMVEMQEPETVIILETAAGLVKATATCRDGRCEKVKLTMVPSFVHELDVSIDTPEWGRVTMDISYGGIFYALVDVRQIGLTIEKANAAKLVAAGMTLKDLVNREMTVVHPEIPAISGVAYVMFRDVDADGSIRTCTTMWPGRADRSPCGTGNSANLATLYARGKVKVGDEYKSRSIIGSEFDVGLSAVTEVAGRPAVIPTIAGRGFTFGLHQVGLDPFDPLGDGFAMTDVWGPEAGNI
Purified protein [4]
  Km: 4.6 ± 2 mM
  kcat: 0.86 ± 0.1 s⁻¹

B5: Bamb_3769 (Q0B950) (Burkholderia ambifaria AMMD) (protein)
chain: MKISRSLSTVEVHTGGEAFRIVTSGLPRLPGDTIVQRRAWLKENADEIRRALMFEPRGHADMYGGYLTEPVSPTADFGVIFLHNEGYSDHCGHGVIALSTAAVELGWVQRTVPETRVGIDAPCGFIEAFVQWDGEHAGPVRFVNVPSFIWRRDVSVDTPSFGTVTGDIAYGGAFYFYVDGAPFDLPVREAAVEKLIRFGAEVKAAANAKYPVVHPEIPEINHIYGTIIANAPRHPGSTQANCCVFADREVDRSPTGSGTGGRVAQLYQRGVLAAGDTLVNESIVGTVFKGRVLRETMVGDIPAVIPEVEGSAHICGFANWIVDERDPLTYGFLVR
Purified protein [5]
  Km: 13 ± 3 mM
  kcat: 43 ± 4 s⁻¹

B6: Atu4684 (A9CH01) (Agrobacterium fabrum str. C58) (protein)
chain: MRSIKTVHVISAHAEGEVGDVIVGGVKPPPGETIWEQSRFIARDETLRNFVLNEPRGGVFRHVNLLVPPKHPDADAAFIIMEPEDTPPMSGSNSICVSTVLLDGGIVPMQEPETHMLLEAPGGLVKVRAECRNGKAERIFVQNLPSFAAKLDAELEVEGLGKLKVDTAYGGDSFVIVDAEAMGFSLKPEEAHEIARLGVRITNAANKALGFDHPENPDWRHFSFCLFAGKVERTAEGLRAGAAVAIQPGKVDRSPTGTALSARMAVLHARGEMKEGETLTAVSLIGSTFTGRILGTTTVGDRPAILPEISGRGWITGIHQHMLDPSDPWPEGYRLTDTWGAR
Purified protein [6]
  Km: 4.2 ± 0.8 mM
  kcat: 27 ± 1 s⁻¹

B7: Pden_1185 (A1B196) (Paracoccus denitrificans PD1222) (protein)
chain: MARKSSAPQFLSYGDATGRLSWRDAVEALRQGHTLPQAQIRDVFLGPPTGTMMSRSAWIEGLGYGAKTFTVFDGNAARGLPTVQGAMLVFDKDDGRLQAIVDSPLVTEFKTAADSVLGASLLARPDSRHLLIVGAGTVAASLVRAYTAVLPGIERVSVWARRPQQAQDLIEGLDGIEADLAAVSDLPAAVGQADIVSSATMARQPVILGAWVRPGTHVDLIGAFKADMREADDALMARAALFVDSRETTLGHIGELMLPIASGAITAESVLGDLYDLVRPGARRRQSEDEITVFKNGGGAHLDLMIASYIARVMAG
Purified protein [7]
  Km: 3.1 ± 0.7 mM
  kcat: 260 ± 20 s⁻¹

B8: Sros_6004 (D2AV87) (Streptosporangium roseum DSM 43021) (protein)
chain: MRTKRVFHAVDSHTEGMPTRVITGGVGVIPGSTMAERREHFLAEMDHVRTLLMYEPRGHSAMSGAILQPPTRPDADYGVLYIEVSGCLPMCGHGTIGVATVLVETGMVEVVEPVTTIRLDTPAGLVVAEVRVEDGAATAVTITNVPSFSAGLDRTVKVPGIGEVTYDLAYGGNFYAILPIESVGLPFDRAHKQQILDAGLAIMDAINEQDEPVHPLDAGIRGCHHVQFTAPGSDARHSRHAMAIHPGWFDRSPCGTGTSARMAQLHARGELPLDTDFVNESFIGTRFVGRLVEETEVTDLPAVVPTITGRAWVTGTAQYFLDPRDPFPEGFLL
Purified protein [8]
  Km: 7.8 ± 1 mM
  kcat: 14 ± 0.8 s⁻¹

B9: RSP_0854 (Q3IZJ8) (Cereibacter sphaeroides 2.4.1) (protein)
chain: MSIEIIGPEAEAHLSWDGLTTALTQGHKLPRAEVADIFLYRGKDTVLSRAAWIDGLGQLVKTATIFPGNGAAGKPTVNGAVTLYSDRDGTLEALVDFHLVTKWKTAGDSLLAAKRLARRDSREILLVGAGNVARSMIEAYGSHFPDARFTVWNRSADKARAMEGPQVRATEDLEAAVRAADIICTATMSQEPVVKGEWLKPGTHLDLIGAYRPDMREVDDEALRRATVFVDSRKTTIGHIGEIQDPLDRGILTEADIRADYYDLASGLYARRSDEEITLAKNGGGAHLDLMTASYIAAMWRQR
Purified protein [7]
  Km: 0.43 ± 0.09 mM
  kcat: 66 ± 4 s⁻¹

B10: Avi_7022 (B9K4G4) (Allorhizobium ampelinum S4) (protein)
chain: MRTNKVIHVIGVHAEGEVGDVIVGGVSPPPGDTLWEQSRFIASDETLRNFVLNEPRGGVFRHVNLLVPPKDPRAQMGFIIMEPADTPPMSGSNSICVSTAILDSGIISMQEPLTHMVLEAPGGVIEVTAECANGKAERINVLNVASFVTRLAAALEVEGLGTLTVDTAYGGDSFVIVDAIGLGFSLKPDEARELAELGMKITAAANEQLGFVHPCNADWNHISFCQMTTPITRENGILTGKSAVAIRPGKIDRSPTGTGCSARLAVMHARGEIGIGETYIGRSIIDSEFKCHIDSLTEIGGLSAIRPVISGRAWITGVSQLMLDPTDPWPSGYQLSDTWPAI
Purified protein [9]
  Km: 15 ± 3 mM
  kcat: 4.3 ± 0.4 s⁻¹

B11: Pden_4859 (A1BBM5) (Paracoccus denitrificans PD1222) (protein)
chain: MTQYIFPCIDGHTCGNPVRLVAGGAPRLEGATMLEKRAHFLREFDWIRTGLMFEPRGHDMMSGAILYPPTRGDCDVAVLYIETSGCLPMCGHGTIGTITMGIENGLIVPRTPGRLSIETPAGKVDIEYRQEGRHVEEVRLTNVPGFLYAEGLTAEVEGLGEIVVDVAYGGNFYAIVEPQKNFRDMADHTAGELIGWSLTLRAALNQKYEFTHPEHPQINGLSHIQWTGAPTVPGAHARNAVFYGDKAIDRSPCGTGTSARMAQLAARGRLGVGDEFWHESIIGSIFKGRIEAAATVAGRDAIIPSIAGWARQTGLNTIFIDAERDPFAHGFVVK
Purified protein [10]
  Km: 25 ± 5 mM
  kcat: 16 ± 2 s⁻¹

B12: PFL_1416 (Q4KGT8) (Pseudomonas protegens Pf-5) (protein)
chain: MSEYITLSLDEVCALSYQVLTRHGLSDAHARAIAEVITQGQRDECHSHGVYRLLGCVRSVREGRIDPRAEPSLRHVSPGVLEVDAHYGYSLLGFHTGLPILAEKARSQGIAAMVIKRCFHFSALWPEVEAIADYGLVGMAMNPSHSWVAPAGGRQPVFGTNPLAFAWPRPGGQPFVFDFATSAIARGDIELHARQGKPIPEHWAIDADGQPTTDAKAALQGAMQTFGGHKGSALAAMIELLAGALIGDLTSAESMAFDGGVGATPCHGELVLAFDPRVFLGEGYEQGLERAEGLFAAIARQGARLPSQRRFAARARSLEHGVQIPRGLLEDIRGLL
Purified protein [7]
  Km: 1.1 ± 0.2 mM
  kcat: 20 ± 0.8 s⁻¹

B13: SM_b20270 (Q92WR9) (Sinorhizobium meliloti 1021) (protein)
chain: MRSTKTIHVISAHAEGEVGDVIVGGVAPPPGDTIWEQSRWIAREQTLRNFVLNEPRGGVFRHVNLLVPPKHPDADAAFIIMEPEDTPPMSGSNSICVSTVLLDSGILPMKEPVTEITLEAPGGLVRVRAECRDGKAERIFVENLPSFAERLDAKLEVEGLGTLTVDTAYGGDSFVIVDAAAMGFALKPDEAHDIARLGVRITNAANAKLGFHHPENPDWRHFSFCLFAGPVERTAEGLRAGAAVAIQPGKVDRSPTGTALSARMAVLHARGQMGLSDRLTAVSLIGSTFSGRILGTTEVGGRPAVLPEISGRAWITGTHQHMLDPSDPWPEGYRLTDTWGAR
Purified protein [1]
  Km: 3.8 ± 0.4 mM
  kcat: 7.9 ± 0.2 s⁻¹
